This passage reports self-cleavage results from the RNAGym collection of RNA variant scans (doi:10.7554/elife.80360).

The chains are these.
B1: HDV Ribozyme (parent)
chain: GGCCGGCAUGGUCCCAGCCUCCUCGCUGGCGCCGGCUGGGCAACAUUCCGAGGGGACCGUCCCCUCGGUAAUGGCGAAUGGGACCCA

Variants of B1 are the subject of the data set. Kind of data set: self-cleavage, relative activity (ratio to wild type); higher = more cleavage; co-transcriptional.
In the case of C21A G68U, the self-cleavage was 0.0432.

Turning to A16C U27A, the self-cleavage came out at 0.684.

With C13A A83G, the self-cleavage came to 0.086. Then C32A G73A, with 0.138; and C41A C66U, with 0.9. The figure for C4G A45G is 0.201; for C4G A45U it is 0.161; for G39A G52C it is 0.394. Take U20A C33G: the self-cleavage stood at 0.151. The figure for C19A U37A is 0.0519. Then C63U U79C, with 0.411. As to A8G G74A, the self-cleavage amounted to 0.256. The figure for C22A G80C is 0.229; for A16G U37G it is 0.119; for G17A G54U it is 0.554.

On to C24G A87C, for which the self-cleavage was 0.128. With G34C A70G, the self-cleavage was 0.0898. The figure for C32U C36G is 0.0923; for U47C C49U it is 0.864; for G40C C49U it is 0.125.

G29A G53U: the self-cleavage stood at 0.114.

As for U23G U69G, the self-cleavage is 0.431. Then G5A G52U, with 0.237. The figure for C48A G50A is 0.969; for C63U C64A it is 0.831. In the case of G40C C84G, the self-cleavage worked out at 0.128. Then C61U U65G, with 0.864. In the case of C22G G74U, the self-cleavage came to 0.0841. Turning to U27A A70U, the self-cleavage was 0.985. Then A87G, with 0.984. The figure for U23G C30G is 0.0536; for C58U G81U it is 0.289; for G6U G11U it is 0.0361. The figure for G5A A71G is 0; for A70G A87U it is 0.928; for G28A G29A it is 0.0978. Regarding U9G U27A, the self-cleavage was determined as 0.437. U65G C86A: the self-cleavage worked out at 0.988. Take G2C G6U: the self-cleavage stood at 0.0601. The figure for U20A C32A is 0.0489; for U37G U69A it is 0.119; for C44G C62U it is 0.758. Then C32U U79C, with 0.201; and C7A A56G, with 0.399. Then G10A C36U, with 0.396. With G34A G38U, the self-cleavage stood at 0.138.

As for C57G U65C, the self-cleavage came out at 0.96. Then C13U A45G, with 0.465; and C24A A70U, with 0.612.

For G1U C3U, the self-cleavage was 0.696.

In the case of G35U U37C, the self-cleavage turned out to be 0.428. Then C61U C62A, with 0.978. The figure for C15A G40A is 0.77; for U37C G52A it is 1.25; for A71C G81C it is 0.172. For the variant U12G C75U, the self-cleavage came out at 0. Then G74C C85A, with 0.217; and C44G A83U, with 0.38; and C15A A83U, with 0.0639.

On to A56C G68U, for which the self-cleavage stood at 1.08. The figure for C3U A8G is 0.554; for G5U U79A it is 0.104. Then U20A G59A, with 0.0302; and A43C G80A, with 0.124; and C66U G73U, with 0.284. The figure for C19U A42U is 0.035; for G31A A45U it is 0.185; for G17A G35A it is 0.205. C57A G67C: the self-cleavage amounted to 1.05. Then G2A A71C, with 0.13. The figure for C13G G55C is 0.135; for G31U G82A it is 0.185; for G52U C63U it is 1.

As to C4U C61U, the self-cleavage came to 0.717.

Consider G76U C85G, for which the self-cleavage was determined as 1.16. Regarding A51G U69C, the self-cleavage worked out at 0.9.

With G11C A56U, the self-cleavage came out at 0.111.

As to G82U C84U, the self-cleavage stood at 0.133. Then A43C U46G, with 0.415. The figure for C36G U72C is 0.0462; for G25C C85U it is 0. The figure for C36A C44G is 0.125; for G5A C58U it is 0.252. Take A8G U65C: the self-cleavage is 1.05. Then A8C U65G, with 0.985; and G29U C84G, with 0.0277. The figure for U27C G82C is 0.356.

As for U23C G38C, the self-cleavage amounted to 0.277.

As to C3G A43U, the self-cleavage is 0.233.

Turning to G35A G39A, the self-cleavage came out at 0.219. Then G17U G59U, with 0.43; and U46C U79C, with 0.432.

Regarding U12G A71C, the self-cleavage was found to be 0.712. The figure for C18G C48A is 0.123. With C48U C66A, the self-cleavage was 0.923.

Regarding G17C G55A, the self-cleavage was determined as 0.402. In the case of A16G C36G, the self-cleavage turned out to be 0. As for G10C G81U, the self-cleavage is 0.196. For the variant G54C G67C, the self-cleavage turned out to be 0.627. The figure for U47G G76C is 0.727; for G1A A42G it is 0.115. As to A8G C15A, the self-cleavage was 0.554. Consider G53U C66U, for which the self-cleavage turned out to be 1.15. Then G6C G34C, with 0.115; and G10A U23A, with 0.596. Regarding G17U U60A, the self-cleavage came out at 0.494. The figure for G28C C33U is 0.232; for U9A G50A it is 1.12. For the variant G1C C84U, the self-cleavage worked out at 0.128.

Consider U46G G55C, for which the self-cleavage turned out to be 0.98. The figure for G2U G53C is 0.0647; for C22A G38C it is 0.0346. As to G52U C85U, the self-cleavage stood at 0.781. Take G2A C61G: the self-cleavage came to 0.102.

On to G6A U20A, for which the self-cleavage amounted to 0.0536. Then U12A C14U, with 0.332. In the case of A42G U60G, the self-cleavage is 0.639. With C32G A45C, the self-cleavage stood at 0.0707.

As for G2U A56U, the self-cleavage worked out at 0.016. Then U69A G73U, with 0.494; and C18G C49U, with 0.138. Then G29A C41G, with 0.0339; and C48U G54A, with 0.813; and G38C C44G, with 0.222. Then G2C G67A, with 0.0449; and U20C G34A, with 0.0504; and C14U A71G, with 0.883. For C14U A71U, the self-cleavage was 1.1. The figure for A45G G55U is 0.888. The figure for A42U A70C is 0.636. Consider C84U C85A, for which the self-cleavage was 0.877.

On to C13G A16C, for which the self-cleavage turned out to be 0.0554. Then C44U G76U, with 0.847; and C66A G80U, with 0.304.

U12C C14G: the self-cleavage is 0.229. Then G11C G54A, with 0.277. The figure for U60A G82C is 0.148.

Take G29A A77G: the self-cleavage was 0.095. The figure for C3G G73U is 0.0583; for C22U U65G it is 0.845; for C63G G81C it is 0.277.

Regarding G31U C48A, the self-cleavage worked out at 0.401. The figure for G76U C84G is 1.05; for G6U C44A it is 0.213; for C4A U65G it is 0.26.

On to U9G G82U, for which the self-cleavage turned out to be 0.767. Regarding G31U U79G, the self-cleavage came out at 0.147. The figure for G82A C86U is 0.522. Then G10C C58G, with 0.917; and G39A A51G, with 0.458; and C44A A83U, with 0.0615.

With C48U A70G, the self-cleavage came out at 0.997.

Regarding C19G, the self-cleavage came to 0.0688.

As to C4G C14A, the self-cleavage came out at 0.0852. The figure for G10C A71G is 0.906; for G53C G81U it is 0.293; for G2U G52C it is 0.0339. The figure for U20G G35C is 0. C4G C48G: the self-cleavage worked out at 0.485. For C4A G40U, the self-cleavage was 0.199. For C3A A77C, the self-cleavage amounted to 0.171. The figure for A83C C85A is 0.534.

Take C14A C18U: the self-cleavage was found to be 0. With C3A G50C, the self-cleavage came out at 0.572. The figure for G39U G59C is 0.671. The figure for C7G G76U is 0.237; for C32G G68U it is 0.089.
